Results on one molecule are retold here after patent publication US20180135060A1 (OURO FINO SAUDE ANIMAL LTDA, published 2018).

The target in this assay is T1, Rrp4 protein of the Pyrococcus abyssi exosome, as encoded by pMRKA-EXO (Pyrococcus abyssi, UniProt Q9V120 2-263).
T1 construct: Co-expressed in E. coli; also called PAB0419
T1 sequence: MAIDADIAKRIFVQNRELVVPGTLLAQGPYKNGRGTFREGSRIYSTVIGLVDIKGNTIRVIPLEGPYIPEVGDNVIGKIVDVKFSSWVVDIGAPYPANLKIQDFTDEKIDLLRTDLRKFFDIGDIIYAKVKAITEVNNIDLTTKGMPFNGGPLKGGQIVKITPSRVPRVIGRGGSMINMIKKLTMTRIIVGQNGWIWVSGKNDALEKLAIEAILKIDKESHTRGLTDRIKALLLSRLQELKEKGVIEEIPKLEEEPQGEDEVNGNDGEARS
In words: co-expression in E. coli and co-purification, gel (FIG. 11).

B1: Rrp41 protein of the Pyrococcus abyssi exosome, as encoded by pMRKA-EXO (R89T, K91S) (other)
chain: MATRAEKPEGLKLIDENGRRIDGRKKYELRPIKMEVGVLKNANGSAYIEWGKNKIIAAVYGPRELHPKHLQRPDRAILRVRYNMAPFSVEETKSPGPDRRSIEISKVIKGALEPALILEMFPRTAIDVFIEVLQADAGTRVAGITAASLALADAGIPMRDLVAACAAGKIEGEIVLDLNKEEDNYGEADVPVAIMPLKNDITLLQMDGYLTKDEFIEAVKLAIKGAKAVYQKQREALKEKYLKIAQEVEGS
notes: also called PAB0420
For B1, the binding result is on record as “binds”.
